The values that follow come from paper PMC6101569.

Test [1] has as its target APLF acidic domain (APLF^AD), Homo sapiens APLF residues 450-511, wild type (human) (UniProt Q8IW19). As to the kind of experiment: cross-linking.
Test [2] deals with APLF^AD labelled with the fluorescent tag NT-647 (human) (UniProt Q8IW19). As to the kind of experiment: MST.
Sequence of APLF^AD labelled with the fluorescent tag NT-647 (human) (Q8IW19 450-511): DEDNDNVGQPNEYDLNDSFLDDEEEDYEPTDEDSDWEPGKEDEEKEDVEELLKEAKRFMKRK

Sequence of APLF acidic domain (APLF^AD), Homo sapiens APLF residues 450-511, wild type (human) (Q8IW19 450-511): as above

In test [1], “H2A-H2B histone dimer from Drosophila melanogaster (from UniProt P84051 2-121; P02283 2-123) (complex)” came in with a stoichiometry N of 1. The substance further showed a KD,1 (high-affinity binding event, sequential-binding model) in test [2] of 800 nM.
With “(H3-H4)2 histone tetramer from Drosophila melanogaster (from UniProt P02299 2-136; P84040 2-103) (complex)”, in test [2], the KD of the secondary binding over KD of the high-affinity binding (fold) turned out to be 50 fold and the KD,1 (high-affinity binding event, sequential-binding model) was 1400 nM.

Broadly, the stoichiometry N is a count of units in the complex or per binding partner.
